Laboratory results: patent US20150299263A1 (FACTOR THERAPEUTICS, published 2015)
Where no end group is shown, it is not given here.

B1: VN-peptide 8A (array grid J4) (peptide)
peptide: KYYRVNLRTRRVDTVD
modifications: not fully specified (N-terminus); also: free end capped by acetylation, immobilised on cellulose membrane (SPOT synthesis)
B2: VN-peptide 3B (array grid F6) (peptide)
peptide: ALALPAHSYSGRERVY
modifications: not fully specified (N-terminus); also: free end capped by acetylation, immobilised on cellulose membrane (SPOT synthesis)
B3: VN-peptide 8B (array grid J5) (peptide)
peptide: RVNLRTRRVDTVDPPY
modifications: not fully specified (N-terminus); also: free end capped by acetylation, immobilised on cellulose membrane (SPOT synthesis)
B4: VN-peptide 7B (array grid I8) (peptide)
peptide: SEESNLGANNYDDYRM
modifications: not fully specified (N-terminus); also: free end capped by acetylation, immobilised on cellulose membrane (SPOT synthesis)
B5: VN-peptide 7A (array grid I7) (peptide)
peptide: LFSSEESNLGANNYDD
modifications: not fully specified (N-terminus); also: free end capped by acetylation, immobilised on cellulose membrane (SPOT synthesis)
B6: VN-peptide 3A (array grid F5) (peptide)
peptide: VDAALALPAHSYSGRE
modifications: not fully specified (N-terminus); also: free end capped by acetylation, immobilised on cellulose membrane (SPOT synthesis)
B7: VN-peptide 7C (array grid I9) (peptide)
peptide: SNLGANNYDDYRMDWL
modifications: not fully specified (N-terminus); also: free end capped by acetylation, immobilised on cellulose membrane (SPOT synthesis)
B8: VN-peptide 6B (array grid G13) (peptide)
peptide: SAGTRQPQFISRDWHG
modifications: not fully specified (N-terminus); also: free end capped by acetylation, immobilised on cellulose membrane (SPOT synthesis)
B9: VN-peptide 6C (array grid G14) (peptide)
peptide: TRQPQFISRDWHGVPG
modifications: not fully specified (N-terminus); also: free end capped by acetylation, immobilised on cellulose membrane (SPOT synthesis)
B10: VN-peptide 6A (array grid G12) (peptide)
peptide: GRTSAGTRQPQFISRD
modifications: not fully specified (N-terminus); also: free end capped by acetylation, immobilised on cellulose membrane (SPOT synthesis)
B11: VN-peptide 5A (array grid G5) (peptide)
peptide: FEHFAMMQRDSWEDIF
modifications: not fully specified (N-terminus); also: free end capped by acetylation, immobilised on cellulose membrane (SPOT synthesis)
B12: VN-peptide 2A (array grid C12) (peptide)
peptide: KPEGIDSRPETLHPGR
modifications: not fully specified (N-terminus); also: free end capped by acetylation, immobilised on cellulose membrane (SPOT synthesis)
B13: VN-peptide 4B (array grid F13) (peptide)
peptide: QYWEYQFQHQPSQEEC
modifications: not fully specified (N-terminus); also: free end capped by acetylation, immobilised on cellulose membrane (SPOT synthesis)
B14: VN-peptide 4A (array grid F12) (peptide)
peptide: KGKQYWEYQFQHQPSQ
modifications: not fully specified (N-terminus); also: free end capped by acetylation, immobilised on cellulose membrane (SPOT synthesis)
B15: VN-peptide 5B (array grid G6) (peptide)
peptide: FAMMQRDSWEDIFELL
modifications: not fully specified (N-terminus); also: free end capped by acetylation, immobilised on cellulose membrane (SPOT synthesis)
B16: VN-peptide 5C (array grid G7) (peptide)
peptide: MQRDSWEDIFELLFWG
modifications: not fully specified (N-terminus); also: free end capped by acetylation, immobilised on cellulose membrane (SPOT synthesis)
B17: VN-peptide 5D (array grid G8) (peptide)
peptide: DSWEDIFELLFWGRTS
modifications: not fully specified (N-terminus); also: free end capped by acetylation, immobilised on cellulose membrane (SPOT synthesis)
B18: VN-peptide 2B (array grid C13) (peptide)
peptide: GIDSRPETLHPGRPQP
modifications: not fully specified (N-terminus); also: free end capped by acetylation, immobilised on cellulose membrane (SPOT synthesis)

biological target: T1, Human receptor grade IGF-II (insulin-like growth factor II) (human, UniProt P01344 25-91); assay: VN-peptide array, ligand overlay, immunoblot/ECL, TotalLab spot intensity
T1 construct: Bought recombinant protein, overlaid in solution on the VN-peptide array
T1 sequence (P01344 25-91 limits assumed): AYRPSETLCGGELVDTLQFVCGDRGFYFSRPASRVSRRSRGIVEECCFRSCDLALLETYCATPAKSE
Method: (§1) Methanol or ethanol was used to enhance the rehydration of peptide spots that might be hydrophobic. The peptides spotted onto the membranes were activated by incubating in 3 mL of 70% ethanol for five mins. The membranes were subsequently washed three times, 10 minutes each, in 10 mL TBS (Tris Buffered Saline; 8 g NaCl, 0.2 g KCl and 6.1 g Tris Base into 1000 mL of milliQ water, pH 7) with gentle rocking. Membrane blocking was performed by incubating in 10 mL casein-based membrane blocking buffer (MBS; Sigma-Aldrich) overnight at 4° C. The following day, the membranes were washed twice, 10 minutes each, in 10 mL TBS-T (TBS+0.05% Tween-20; pH 7).
(§2) Ligands used to test binding to VN-peptides were IGFBP-3, IGFBP-5 and IGF-II. For ligand binding, four separate solutions of 1 μg/mL ligand in 10 mL MBS buffer were prepared and each membrane was incubated in one of the four ligand solutions overnight at 4° C., with gentle rocking. […] The following day, the membranes were washed three times, 10 minutes each, in 10 mL TBS-T.
(§3) The binding of the ligands to peptides within the membrane was detected using immunoblotting. The membranes were incubated overnight at 4° C. with 10 mL primary antibody solution (in MBS buffer) targeting the respective ligands. The antibodies used were anti-IGFBP-3 (1:10,000), anti-IGFBP-5 (1:10,000) and anti-IGF-II (1:5000) to detect IGFBP-3, IGFBP-5 and IGF-II respectively. The following day, the membranes were washed three times, 10 minutes each, in 10 mL TBS-T and incubated with 10 mL HRP-conjugated secondary IgG antibody diluted 1:15,000 in MBS buffer for 1 hour at room temperature. Following a further three washes of 10 minutes each, the peptide spots were visualized using ECL. The membranes were exposed onto x-ray films and developed using a film processor (AGFA CP 1000), or were imaged directly using the ChemiDoc™ XRS system (BioRad).

Compared with B1, B2 is higher in “Intensity (against -ve control)” value: 5 fold over negative controls for the first, 10 fold over negative controls for the second.

Going from B3 to B4, the “Intensity (against -ve control)” value rises from 17 fold over negative controls to 18 fold over negative controls.

Going from Ac-LRTRRVDTVDPPYPRS (also: immobilised on cellulose membrane) [VN-peptide 8C (array grid J6)] to B5, the “Intensity (against -ve control)” value rises from 13 fold over negative controls to 17 fold over negative controls.

First: B6
Second: B7
The “Intensity (against -ve control)” value of the first is lower: 5 fold over negative controls for the first, 12 fold over negative controls for the second.

Compared with B8, B9 is higher in “Intensity (against -ve control)” value: 0 fold over negative controls for the first, 1.5 fold over negative controls for the second.

In the case of B10, the “Intensity (against -ve control)” value is reported as 12 fold over negative controls.

biological target: T2, Human receptor grade IGFBP-3 (insulin-like growth factor binding protein 3) (human, UniProt P17936 28-291); assay: as above
T2 construct: Bought recombinant protein, overlaid in solution on the VN-peptide array
T2 sequence (P17936 28-291 limits assumed): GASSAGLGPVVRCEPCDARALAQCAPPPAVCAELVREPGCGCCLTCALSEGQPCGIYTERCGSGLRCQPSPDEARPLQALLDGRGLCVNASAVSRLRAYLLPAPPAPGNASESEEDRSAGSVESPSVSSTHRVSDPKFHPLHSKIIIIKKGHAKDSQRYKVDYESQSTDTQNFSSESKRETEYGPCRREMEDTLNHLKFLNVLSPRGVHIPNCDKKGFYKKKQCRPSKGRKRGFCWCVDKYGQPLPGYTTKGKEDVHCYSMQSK
Method: as §1, §2, §3

Going from B1 to B2, the “Intensity (against -ve control)” value falls from 5 fold over negative controls to 1 fold over negative controls.

Compared with B11, B12 is higher in “Intensity (against -ve control)” value: 1.5 fold over negative controls for the first, 4 fold over negative controls for the second.

Going from B13 to B3, the “Intensity (against -ve control)” value falls from 12 fold over negative controls to 7 fold over negative controls.

Compared with B14, B15 is lower in “Intensity (against -ve control)” value: 6 fold over negative controls for the first, 4.5 fold over negative controls for the second.

Compared with Ac-LRTRRVDTVDPPYPRS (also: immobilised on cellulose membrane) [VN-peptide 8C (array grid J6)], B6 is lower in “Intensity (against -ve control)” value: 10 fold over negative controls for the first, 1 fold over negative controls for the second.

Going from B8 to B16, the “Intensity (against -ve control)” value rises from 1 fold over negative controls to 4.5 fold over negative controls.

Compared with B9, B10 is higher in “Intensity (against -ve control)” value: 1.5 fold over negative controls for the first, 2 fold over negative controls for the second.

First: B17
Second: B18
The “Intensity (against -ve control)” value of the first is higher: 2.5 fold over negative controls for the first, 2 fold over negative controls for the second.

biological target: T3, Human receptor grade IGFBP-5 (insulin-like growth factor binding protein 5) (human, UniProt P24593 21-272); assay: as above
T3 construct: Bought recombinant protein, overlaid in solution on the VN-peptide array
T3 sequence (P24593 21-272 limits assumed): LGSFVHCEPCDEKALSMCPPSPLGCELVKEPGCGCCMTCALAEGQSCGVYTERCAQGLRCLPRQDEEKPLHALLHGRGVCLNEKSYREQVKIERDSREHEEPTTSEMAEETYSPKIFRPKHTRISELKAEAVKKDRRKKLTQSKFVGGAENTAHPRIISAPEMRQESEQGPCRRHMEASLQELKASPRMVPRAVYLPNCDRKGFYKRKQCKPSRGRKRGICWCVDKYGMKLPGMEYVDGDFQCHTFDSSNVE
Method: as §1, §2, §3

B1 and B2 are the same in “Intensity (against -ve control)” value: 3 fold over negative controls for the first, 3 fold over negative controls for the second.

First: B12
Second: B3
The “Intensity (against -ve control)” value of the first is lower: 5 fold over negative controls for the first, 7 fold over negative controls for the second.

Going from Ac-LRTRRVDTVDPPYPRS (also: immobilised on cellulose membrane) [VN-peptide 8C (array grid J6)] to B6, the “Intensity (against -ve control)” value falls from 9 fold over negative controls to 3 fold over negative controls.

First: B8
Second: B9
The “Intensity (against -ve control)” value of the first is lower: 1.5 fold over negative controls for the first, 5 fold over negative controls for the second.

B10 and B18 are the same in “Intensity (against -ve control)” value: 7 fold over negative controls for the first, 7 fold over negative controls for the second.
